This data set can be described thus: label from the status in PepcDB records.
On to “MRGPFMGFSIEFGEANLDKLGVRRTSERVSQPPLTLKNYALSRSIGRGNTSDVRLATGPDGREVAIKLPLPATLRQHDAAERFGNEVRLTLQFRHPHVVRGFAGTPFGPGAFLALFYYPDGPLSNRLRGQPLPNEEALRILADIAAALAYLHRLGAVHQDVKPQNVYVSGGRAALGDLGSAYFVAQGSKTSGSPYYMAPEVYHGESTSSASDVYSLGVMAWELLTGARPFSGNSYEELMVAHLSRFPAPLASLRPELPRALSRLLDRTFAKRPHERPTADALRRALLEALGETPQEEDLPAEEVPLASQQAGRHTAAPRVTGPQGPAETPAQPERVRPARRGWNPFRRKG”, for which the protein production result was “failed”.
With “MRGRFFFRSFEATLIGSEFLVSPETPGTRFAKAPSFRSKTEKDLCSAHGAAASGVLPLGLLEELVRSSPRSSQASGPAGSRQPAQRAPGHQVPAAKMLELLVASLSLALAFFALLDGWYLVRVPCAVLRARLLQPRVRDLLAEQRYAGRVLPSDLDLLLHMNNARYLREADVARAAHLTRCGVLGALRDLNAHTVLAASCARYRRSLRLFEPFEVHTRLQGWDDRAFYLEARFVSLRDGFVCALLRFRQHVLGTSPDRVVQHLCKRRVEPPELPEDLKHWISYNETSSQLLRAESGLSDRKDQ”, the protein production result is recorded as “failed”.
Then “MRGRMTRSQLILAILAGLVISIDNMISIVAFSSLIYQGALEIYIPLVINILAISVIIISASYLFMSSPPYAIAQLQDEAAILYSAMGLVIIKSMPSSSTNEAIFITILFMLGVTTCLTGLSFYFVGKFRFGNIIRYLPYPVICGFMAATGWLVLSGTFALLTGKALHQNWLVFFHKEEILLWAPGFIAGIVVYIFKEKLGYRYALQLMFISLVILFYALFYIFNLEYLVDPTEGYVLGPFNQSHIDSLMKPEIWQMIHYPFSMTLLNYIGLVILVSFIALLLNASSYELIVNKQLDLNKELRIAGIGNVFSGLLGGMVGYLSLSASTVAKEYGGARIIGVMAFVPMLLILCFGAVVVECFPKMAIGCYLFYIAFCFLSEWLINTWRLLNLSEYLIVLLILVIAIVFNMITAVAIGTVISIFIFAFRYSKINPVKYLFSGADYNSSFERNPISQSILSTQGDEIQFLKLQGFLFFGSIYRLLQLIKSIQKARYIILDFELVYNIDSSRIILMKNLKLHAEKNNISFAICSLKPIVYHELMKTNLLQSKTNWLKVFTDQESALEWCEDQVIEKYTENINIEEVTLEKQLLYLGFSSELVAWISEKASIKPYNPDDIICHEGEESNSVYFIHRGRVTAFVGDKRVLVVGSGNVLGEIAIYTHKKRTATLKTNEKTIVYEIDLKSIQELSKNKPLLLVQFHVCMAKILANRLSVLNKRIKVFDSTAILQ”, with “failed”; and “MRGWICVKLTKLNIKKYRAPIYKYALANVNLRSAKSTNSSIITVIPQGAKMEVLDEEDDWIKVMYNSQEGYVYKDLVSVSEYAWSNLNLREDKSTTSNIITVIPEKSRVEVLQVDGDWSKVVYDDKIGYVFNYFLSIDGNKPNELDYKYFYTDMIKFVNENNIKSTSDYLIVTDLRNKYTYIFKKDNGGWGQLYKWQCTIGKPETPTITGIFYISGRKPSFGTDEYSVKYATRIKGGYYYHSVLYDSTGSYIIDGRLGEALSHGCIRLSTENAKWIYDNIPDTTTVIIH”, with “failed”.
As for “MRHISPEELIALHDANISRYGGLPGMSDPGRAEAIIGRVQARVAYEEITDLFEVSATYLVATARGHIFNDANKRTALNSALLFLRRNGVQVFDSPELADLTVGAATGEISVSSVADTLRRLYGSAELEHHHHHH”, the protein production result was “not failed”.
Under “MRHLKSGRKLNRHSSHRLALYRNQAKSLLTHGRITTTVPKAKELRGFVDHLIHLAKRGDLHARRLVLRDLQDVKLVRKLFDEIAPRYRDRQGGYTRVLKLAERRRGDGAPLALVELVE” stands “not failed”; under “MRHMSGDHAALVLGAGAGRRLGRSKQLLMRDGEPLLRRAARIALLTAPRRCVVVLGADADTLSEVLQDLDIEILRHPDWSEGMGSSLAALRRHVQGDPALRRSLILGCDQPALDAPHLRSLLEEADRAVSGCATSGYSGVRGIPAVVTHTAWADVPLQADSGLRGLFASLDMQSLGCVSAPALALDIDTPADLATAQQRGWVDAELEHHHHHH”, “failed”.
Under “MRHRGGRGFRGWWLASTILLLVAEKPSHGYELAERLAEFGIEIPGIGHMGNIYRVLADLEESGFLSTEWDTTVSPPRKIYRITPQGKLYLREILRSLEDMKRRIETLEERIKRVLQEE” stands “not failed”; under “MRIAAALLAIALTGLSGAVWAETSAAIVARKPDLFHPETGLRIDRQRAPVPEDIPPPARKISALWARKLIARGALALDVYGAAQSRYDELDGTWLVPEPRQSLPGAVWLPEVGRGVLDAALQVYLERELERLTGGSKARAIVVFCVADCWMSWNAAQRIAGMGYLQVYWFPLGTDGWRELGWPLEPVEPVPVPVD”, “failed”.
With “MRICMVSDFFYPSIGGVEEHVYNLSQMLLSLGHKIVVLTHAYGDCSGIRYVTGYLKVYYLPIKVCYNQCILPTAVCNVPMLRAVLLRERVEVVHGHSAFSALAHEALMVGSLLGLKTVFTDHSLFGFADLSAALTNNLLEVNLGMVNHAICVSHIGKENTVLRARVAKHRVSVIPNAVDTALFTPDPQQRPSNDIINIVVASRLVYRKGIDLLAGIIPRFKNTPNINFIIVGDGPKRDLLEEIREKTNMQERVQMVGAVEHNRVRDFLVRGHIFLNTSLTEAYCMAIVEAASCGLQVVSTSVGGIPEVLPKSLILLAEPEIDAIYAAILIAIDRHRKSSFKVSPSVGNGHLASDANGKVKRRRRRKVDTPISPTQLPAVSAPPADQNSSTEPVMCPYRCNELVETLYNWEDVALRTVKVYDRVLNERSFTTSELVFAVWQHGSWFLVFFVVAHFLMRLLELWRPRKHVEIAQDVQRRAS”, the protein production result is given as “failed”.
In the case of “MRIECYSWSDVSEQILEQAIALQNSAFEDMKGNFYQVDIPYKLVLAIDDNQVIGHVAVYLRDVYLDSFPETIGILSCVVVAHKYRGKGVAASLIKMAHAILKEHSVNFSILFAVSHAYYLSSGYIPMKNLTRFIENNEKKEFIYDGGMVCELGSQNWNVNILELNGEVV”, the protein production entry is given as “failed”.
Under “MRIGIMGLGRIGAFHAETLSGLPAVTSLVVTDPFTDAAKSAAERFGAEVADSPEAVLAAGVDGVVVAAATDAHPGLVLAAVEAGVPVFCEKPVARTMREGVAVLEAVRDAGVEIQIGYNRRFDAGFVAARAAVASGELGALHTVRSTTLDPAPPPPAYVAASGGIFRDCSVHDFDIIRWVTGREVVEVYATGGNRGADYIAAAGDADTTAAVLTLDDGTLAVVSNSRHNARGHDVRMELHGFRDSIAVGLEDRLPLRSVEPGTSFPAGTPHDFFMDRFAAAYRAELTAFTEVVAGRRPSPCTVADALEAGWIAEACTLSLHSHRPVTVEEVRRQS” stands “failed”; under “MRIIAITEKVIKELFRDKRTLAMMFLAPILIMFLMNVMFSANSNTKVKIGTINVNTKVVSNLDNIKHIQVRSFKFNSSAKKALKSNKIDALISEDNKSYTVFYANTDSSKTTLTRQAFKTAVNTMNSKELISQVKILANKNPKLAQSLQTRSKYIKEKYNYGNKNTGFFAKMIPILMGFMVFFFVFLISGMALLKERTSGTLDRLLATPVKRSDIVFGYMLSYGILAIIQTIVIVLSTIWLLDIQVVGSIFSVIIVNFILALVALSLGILMSTLAKSEFQMMQFIPLIIMPQLFFSGIIPLENMASWAQTVGKILPLSYSGDALTKIIMYGQGLPNVSSNLLVLLLFLIILTIANIFGLKRYRKV”, “failed”.
Take “MRILDYDKVIERILEFIREKGNNGVVIGISGGVDSATVAYLATKALGKEKVLGLIMPYFENKDVEDAKLVAEKLGIGYKVINIKPIVDSFVENLELNLDRKGLGNIMSRTRMIMLYAHANSLGRIVLGTSNRSEFLTGYFTKWGDGASDYAPIINLYKTEVWEIAKRIGVPERIVKKKPSAGLWEGQTDEDELGISYNLLDEILWRMIDLKIGKEEIAKDLGIPLSLVERVEELIKKSEHKRRLPIGPSFEDLIVGP”: the protein production result was “not failed”.
“MRILIASQPIAGHVLPLREIARELARRGHELRWYTGRKFRPQVEAAGAVWEGFVHARDYDDANFDAAFPGRSARRGLAQLLFDLRHVFVGQMEGQFYDLRDLERRWRPDVVLADQTVGAALLREELGGPPVALLGVLPLGIASRDTAPFGLGLAPLGGAAGQLRNRALQVLTERVVFRGISAQLADLCTWLGLPARSFAPPVAPSLMLQPSVPRLEYLRRDLPPQVRFIGPLVLPAGEFTPPAWWNDILTAERPVVLVTQGTLATRPEQLLRPALAALADEDVLVVAAGVAPERLGPLPANARAAAFVPFTALLPHVAVSLTNGGYGGTVQALSHGVPCVVAGRSEDKAEVAARVAYSGAGLNLGTATPSPARIRAAVRRVLREPAFREQAGELGHELRQHDAPREAADWLETLGGKKLEHHHHHH”: the protein production result was “failed”.
As for “MRILIPFKANNPKSRLSSILSEEERKELARLMLLDVIDAAKPFGEIKVVCPSELDVEGVEVVVDTSDLNTTVNKVMDEAPLAVIMSDLPLLSEEVLKRFFETEGDVVVAPGRKGGTNMLLVRKRGFRVSYHFGSFFKHLEMARKMGMKAKIFDSFYSSVDIDDESDLLELMMHGSGKKSYEFLRKIGFSVSFEETPRLERRVFMQ”, the protein production entry is recorded as “failed”.
Under “MRILLVLAHPLEDSFAAAVARTAREALEASGHVVDLFDLYAENFDPRLSKAERGGYFDQPYDTSAVADIVARLKAADGLILVFPQWWFNFPAILKGFFDRVFAPGVAFSHDAAGGRIVPQLTHIRLLYALTTTGSPWWLVRLYMGDPVRRLLKRGIAAFCSKGLNFRMLSLHDMDRASDVKRRAHLDRVRKLLSAIR” stands “failed”; under “MRISKTTKIGALTLIALFLLYFGLNYLKGFNVFKRANVYYAAFPEVKNVNIASPVLVNGYKVGVVKSLSFDYKNGRSIVVGIDLESEYRMPKGSHLAIHQTALSGAELRIIQGDPRDGYLNPGDTIRSETPDDIMSVTSNKIVPSVVNMMPKVDSVIVGLANMVNNPNLAVMMENMAATAQRLNRLTASLDKSIGTQLPAVMANTRTITDNVAMLSEELKQLKLEALMAELQATSENLRSFSDQIRNSNGSLGMLLNDKSLYMRLDSMASSADALLRDLKANPKRYVHFSVF”, “failed”; under “MRKAWVKTLALDRVSNTPVVILGIEGTNRVLPIWIGACEGHALALAMEKMEFPRPLTHDLLLSVLESLEARVDKVIIHSLKDNTFYATLVIRDLTYTDEEDEEAALIDIDSRPSDAIILAVKTGAPIFVSDNLVEKHSIELEVNETQDEEEEFKKFVENLNIDTFKQMIEKKREEDEEGES”, “not failed”.
Then “MRKEIRFSGFGGQGIILAGVILGRAASLYAGKEAVQTQSYGPEARGGASKSEVVISEIEIDFPKVIQPDILISMSQPAFDKYGYDLKENARVIVDRDLVNLPEGYEEKYEVYKVPFTEIANKEVGLGIVANIVMLGALTKLSGLVPKEEVEKALLDSIPKGTEKKNLMAFEKGYEYL”, with “not failed”; and “MRKILEKVRRNRTYSFGKDLYDRTMRDDVAGLAAQLAYFFLLAIFPGLVFLITLLGFIDLQTESVLNLLEPYVPEDAMSLIEVNVDKVVNEQNGGLLSFGLLSMLWFASNGVNAVMNAFNRAYDVTETRSFIKTRALSIVFTLAIIFMIVFALIVPVFGQVIGAAVFKAIGLSDSFSYVWSITRLVASFFVLFALFSFLYTFAPDRKLKRREVISGATFATVGWIVVSYSFAYYVDKFANYANTYGGLGGIIILMLWFYLTGWVILLGGEINGLLHHYRTGDNNSRNEK”, with “failed”.

Values taken from a protein production outcome set (Wang et al. 2014).
